In US20080050387A1, “Non-Androgen Dependent Roles for Androgen Receptor and Non-Androgen Related Inhibitors of Androgen Receptor” (priority 2003, published 2008):

Target: T1, GR (Homo sapiens, UniProt P04150)
T1 construct: host or cells: H1299
T1 sequence (P04150 1-777): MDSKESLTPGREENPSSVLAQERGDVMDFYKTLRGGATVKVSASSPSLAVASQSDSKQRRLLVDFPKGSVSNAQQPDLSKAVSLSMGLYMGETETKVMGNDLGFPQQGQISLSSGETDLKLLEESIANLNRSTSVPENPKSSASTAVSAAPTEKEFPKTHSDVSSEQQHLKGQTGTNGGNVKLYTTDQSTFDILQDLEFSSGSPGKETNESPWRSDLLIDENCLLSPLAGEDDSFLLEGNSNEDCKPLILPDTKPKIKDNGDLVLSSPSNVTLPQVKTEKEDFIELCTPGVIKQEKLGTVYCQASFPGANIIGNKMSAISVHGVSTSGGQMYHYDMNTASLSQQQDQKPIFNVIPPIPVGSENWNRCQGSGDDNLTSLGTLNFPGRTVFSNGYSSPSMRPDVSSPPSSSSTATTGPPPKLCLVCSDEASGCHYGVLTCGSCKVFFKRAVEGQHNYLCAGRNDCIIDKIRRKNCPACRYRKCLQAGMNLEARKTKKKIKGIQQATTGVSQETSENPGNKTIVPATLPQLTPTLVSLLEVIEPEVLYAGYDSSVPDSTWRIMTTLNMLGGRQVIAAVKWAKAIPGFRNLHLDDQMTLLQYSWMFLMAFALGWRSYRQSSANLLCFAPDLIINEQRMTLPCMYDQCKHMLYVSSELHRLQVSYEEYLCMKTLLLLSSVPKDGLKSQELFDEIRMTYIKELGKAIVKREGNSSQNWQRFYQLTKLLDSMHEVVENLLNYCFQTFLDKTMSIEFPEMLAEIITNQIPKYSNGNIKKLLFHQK
Assay: GR transactivation reporter gene assay in H1299 cells with ARA67
Assay type: cell-based
Conditions: 500 ng pSG5-ARA67, MMTV-Luc, cognate ligand
Procedure: H1299 and COS-1 cells were maintained in Dulbecco's modified Eagle's medium (DMEM) (Life Technologies, Inc.) supplemented with 10% heat inactivated fetal bovine serum (FBS). LNCap cells were maintained in RPMI 1640 supplemented with […]. All media contain 100 units penicillin, 100 μg/ml streptomycin and 2 mM L-glutamine. Cells were seeded to a density of 50-60% confluency for transfection. In transfections where H1299 and COS-1 cells were used, the calcium phosphate precipitation method was used as described (Pan H J, et al. 1999. Endocrine 11:321-327) unless otherwise noted. […] In other reporter gene assays, where ligand treatment was required, cell culture media were changed to DMEM containing 10% charcoal-dextran-stripped FBS (CD-FBS) 2 h before transfection. After 16-18 h transfection, cells were treated with medium containing either vehicle or ligands for another 20-24 h and then cells were harvested. With LNCap cells transfection, the cells were treated with fresh RPMI 1640 containing 10% CD-FBS before transfection with SuperFect performed according to the manufacturer's protocol (Qiagen). After transfection, cells were allowed to recover in fresh RPMI 1640 containing 10% CD-FBS for 8-12 h, and then treated with either vehicle or ligands for another 20-24 h before harvesting. Each experiment was repeated at least three times.

B1: ARA67: AR N-terminal interacting protein of 585 amino acids (SEQ ID NO:1), matches PAT1; functions as a repressor of AR (protein)
chain: MAAVELEWIPETLYNTAISAVVDNYIRSRRDIRSLPENIQFDVYYKLYQQGRLCQLGSEFCELEVFAKVLRALDKRHLLHHCFQALMDHGVKVASVLAYSFSRRCSYIAESDAAVKEKAIQVGFVLGGFLSDAGWYSDAEKVFLSCLQLCTLHDEMLHWFRAVECCVRLLHVRNGNCKYHLGEETFKLAQTYMDKLSKHGQQANKAALYGELCALLFAKSHYDEAYKWCIEAMKEITAGLPVKVVVDVLRQASKACVVKREFKKAEQLIKHAVYLARDHFGSKHPKYSDTLLDYGFYLLNVDNICQSVAIYQAALDIRQSVFGGKNIHVATAHEDLAYSSYVHQYSSGKFDNALFHAERAIGIITHILPEDHLLLASSKRVKALILEEIAIDCHNKETEQRLLQEAHDLHLSSLQLAKKAFGEFNVQTAKHYGNLGRLYQSMRKFKEAEEMHIKAIQIKEQLLGQEDYEVALSVGHLASLYNYDMNQYENAEKLYLRSIAIGKKLFGEGYSGLEYDYRGLIKLYNSIGNYEKVFEYHNVLSNWNRLRDRQYSVTDALEDVSTSPQSTEEVVQSFLISQNVEGPSC
suppression on GR: 20%
